Experimental data reported in patent publication US20230293638A1 (Eli Lilly, published 2023).
Positions count from the first letter of the chain named. Numbered stars: 1 amine (or outer) side, 2 acyl side, 3 side chain; on linkers, the order of the positions; unused ones are H or OH. Square brackets hold non-standard residues; d marks the D form. Side chains are listed from the residue outwards. Ends that are not written are not given here. * marks the point of attachment. C20 diacid = O=C(O)CCCCCCCCCCCCCCCCCCC(=O)*; C18 diacid = O=C(O)CCCCCCCCCCCCCCCCC(=O)*; αMePhe(2-F) = C[C@](N)(Cc1ccccc1F)C(=O)O; γGlu = O=C(O)[C@H](CCC(=O)[*:2])N[*:1]; αMeL = CC(C)C[C@](C)(N)C(=O)O; αMeK = C[C@](N)(CCCCN)C(=O)O; AEEA = NCCOCCOCC(=O)O; Aib = CC(C)(N)C(=O)O

Target: human GLP-1 receptor (human, UniProt P43220 24-463)
Assay: cell-based or functional assay

B1: Peptide 189 (peptide)
peptide: YXEGTXTSDXSIXLDEKAQXEFIXYLIEGGPSSGAPPPS
modifications: Aib2; αMeF(2F)6; 4Pal10; αMeL13; K17((2-[2-(2-Amino-ethoxy)-ethoxy]-acetyl)2-(γGlu)-CO-(CH2)18-CO2H); Aib20; Aib24; C-terminal NH2
**Q.** B1 was tested. Which “hGLPIR cAMP EC50 ratio” value did it give?
**A.** Its value is 0.668.

B2: Peptide 174 (peptide)
peptide: B1 peptide with X10H, E21T
modifications: Aib2; αMeF(2F)6; αMeL13; K17((2-[2-(2-Amino-ethoxy)-ethoxy]-acetyl)2-CO-(CH2)18-CO2H); Aib20; D-Glu24; C-terminal NH2
**Q.** How did the “hGLPIR cAMP EC50 ratio” value turn out when B2 was run?
**A.** Its value is 0.0968.

B3: Peptide 173 (peptide)
peptide: B1 peptide with X10H, E16X, E21T
modifications: Aib2; αMeF(2F)6; αMeL13; Dap16; K17((2-[2-(2-Amino-ethoxy)-ethoxy]-acetyl)2-(γGlu)-CO-(CH2)18-CO2H); Aib20; D-Glu24; C-terminal NH2
**Q.** With B3 as the binder, how does the “hGLPIR cAMP EC50 ratio” value read?
**A.** The value was 0.0373.

B4: Peptide 203 (peptide)
peptide: B1 peptide with E16K
modifications: Aib2; αMeF(2F)6; 4Pal10; αMeL13; K17((2-[2-(2-Amino-ethoxy)-ethoxy]-acetyl)2-(γGlu)-CO-(CH2)18-CO2H); Aib20; D-Glu24; C-terminal NH2
**Q.** For B4, which “hGLPIR cAMP EC50 ratio” value is on record?
**A.** Its value is 0.671.

B5: Peptide 208 (peptide)
peptide: B1 peptide with X10Y
modifications: Aib2; αMeF(2F)6; αMeL13; K17((2-[2-(2-Amino-ethoxy)-ethoxy]-acetyl)2-(γGlu)-CO-(CH2)14-CO2H); Aib20; D-Glu24; C-terminal NH2
**Q.** Which “hGLPIR cAMP EC50 ratio” value does the source give for B5 here?
**A.** Its value is 0.587.

B6: Peptide 206 (peptide)
peptide: B1 peptide
modifications: Aib2; αMeF(2F)6; 4Pal10; αMeL13; K17((2-[2-(2-Amino-ethoxy)-ethoxy]-acetyl)2-CO-(CH2)18-CO2H); Aib20; D-Glu24; C-terminal NH2
**Q.** For B6, which “hGLPIR cAMP EC50 ratio” value is on record?
**A.** The value was 1.42.

B7: Peptide 183 (peptide)
peptide: B1 peptide with X10L
modifications: Aib2; αMeF(2F)6; αMeL13; K17((2-[2-(2-Amino-ethoxy)-ethoxy]-acetyl)2-(γGlu)-CO-(CH2)18-CO2H); Aib20; D-Glu24; C-terminal NH2
**Q.** With B7 as the binder, how does the “hGLPIR cAMP EC50 ratio” value read?
**A.** Its value is 0.843.

B8: Peptide 207 (peptide)
peptide: B1 peptide
modifications: Aib2; αMeF(2F)6; 4Pal10; αMeL13; K17((2-[2-(2-Amino-ethoxy)-ethoxy]-acetyl)2-(εK)-CO-(CH2)18-CO2H); Aib20; D-Glu24; C-terminal NH2
**Q.** With B8 as the binder, how does the “hGLPIR cAMP EC50 ratio” value read?
**A.** The value was 1.23.

B9: Peptide 180 (peptide)
peptide: Y[Aib]EGT[αMePhe(2-F)]TSDHSI[αMeL]LDEK([AEEA-AEEA-γGlu-C18 diacid])AQ[Aib]HFI[dE]YLIEGG-NH2
modifications: N-terminus assumed
SMILES: CC[C@H](C)[C@H](NC(=O)[C@H](CC(C)C)NC(=O)[C@H](Cc1ccc(O)cc1)NC(=O)[C@@H](CCC(=O)O)NC(=O)[C@@H](NC(=O)[C@H](Cc1ccccc1)NC(=O)[C@H](Cc1c[nH]cn1)NC(=O)C(C)(C)NC(=O)[C@H](CCC(N)=O)NC(=O)[C@H](C)NC(=O)[C@H](CCCCNC(=O)COCCOCCNC(=O)COCCOCCNC(=O)CC[C@H](NC(=O)CCCCCCCCCCCCCCCCC(=O)O)C(=O)O)NC(=O)[C@H](CCC(=O)O)NC(=O)[C@H](CC(=O)O)NC(=O)[C@H](CC(C)C)NC(=O)[C@](C)(CC(C)C)NC(=O)[C@@H](NC(=O)[C@H](CO)NC(=O)[C@H](Cc1c[nH]cn1)NC(=O)[C@H](CC(=O)O)NC(=O)[C@H](CO)NC(=O)[C@@H](NC(=O)[C@](C)(Cc1ccccc1F)NC(=O)[C@@H](NC(=O)CNC(=O)[C@H](CCC(=O)O)NC(=O)C(C)(C)NC(=O)[C@@H](N)Cc1ccc(O)cc1)[C@@H](C)O)[C@@H](C)O)[C@@H](C)CC)[C@@H](C)CC)C(=O)N[C@@H](CCC(=O)O)C(=O)NCC(=O)NCC(N)=O
**Q.** B9 was tested. Which “hGLPIR cAMP EC50 ratio” value did it give?
**A.** Its value is 0.0212.

B10: Peptide 21 (peptide)
peptide: Y[Aib]EGTFTSDYSI[αMeL]LDEK([AEEA-AEEA-γGlu-C20 diacid])AQ[αMeK]AFIEYLLEGGPSSGAPPPS-NH2
modifications: N-terminus assumed
SMILES: CC[C@H](C)[C@H](NC(=O)[C@H](Cc1ccccc1)NC(=O)[C@H](C)NC(=O)[C@](C)(CCCCN)NC(=O)[C@H](CCC(N)=O)NC(=O)[C@H](C)NC(=O)[C@H](CCCCNC(=O)COCCOCCNC(=O)COCCOCCNC(=O)CC[C@H](NC(=O)CCCCCCCCCCCCCCCCCCC(=O)O)C(=O)O)NC(=O)[C@H](CCC(=O)O)NC(=O)[C@H](CC(=O)O)NC(=O)[C@H](CC(C)C)NC(=O)[C@](C)(CC(C)C)NC(=O)[C@@H](NC(=O)[C@H](CO)NC(=O)[C@H](Cc1ccc(O)cc1)NC(=O)[C@H](CC(=O)O)NC(=O)[C@H](CO)NC(=O)[C@@H](NC(=O)[C@H](Cc1ccccc1)NC(=O)[C@@H](NC(=O)CNC(=O)[C@H](CCC(=O)O)NC(=O)C(C)(C)NC(=O)[C@@H](N)Cc1ccc(O)cc1)[C@@H](C)O)[C@@H](C)O)[C@@H](C)CC)C(=O)N[C@@H](CCC(=O)O)C(=O)N[C@@H](Cc1ccc(O)cc1)C(=O)N[C@@H](CC(C)C)C(=O)N[C@@H](CC(C)C)C(=O)N[C@@H](CCC(=O)O)C(=O)NCC(=O)NCC(=O)N1CCC[C@H]1C(=O)N[C@@H](CO)C(=O)N[C@@H](CO)C(=O)NCC(=O)N[C@@H](C)C(=O)N1CCC[C@H]1C(=O)N1CCC[C@H]1C(=O)N1CCC[C@H]1C(=O)N[C@@H](CO)C(N)=O
**Q.** For B10, which “hGLPIR cAMP EC50 ratio” value is on record?
**A.** The value was 0.402.

B11: Peptide 179 (peptide)
peptide: Y[Aib]EGT[αMePhe(2-F)]TSDHSI[αMeL]LDEK([AEEA-AEEA-γGlu-C18 diacid])AQ[Aib]HFI[dE]YLIEGGPSSG-NH2
modifications: N-terminus assumed
SMILES: CC[C@H](C)[C@H](NC(=O)[C@H](CC(C)C)NC(=O)[C@H](Cc1ccc(O)cc1)NC(=O)[C@@H](CCC(=O)O)NC(=O)[C@@H](NC(=O)[C@H](Cc1ccccc1)NC(=O)[C@H](Cc1c[nH]cn1)NC(=O)C(C)(C)NC(=O)[C@H](CCC(N)=O)NC(=O)[C@H](C)NC(=O)[C@H](CCCCNC(=O)COCCOCCNC(=O)COCCOCCNC(=O)CC[C@H](NC(=O)CCCCCCCCCCCCCCCCC(=O)O)C(=O)O)NC(=O)[C@H](CCC(=O)O)NC(=O)[C@H](CC(=O)O)NC(=O)[C@H](CC(C)C)NC(=O)[C@](C)(CC(C)C)NC(=O)[C@@H](NC(=O)[C@H](CO)NC(=O)[C@H](Cc1c[nH]cn1)NC(=O)[C@H](CC(=O)O)NC(=O)[C@H](CO)NC(=O)[C@@H](NC(=O)[C@](C)(Cc1ccccc1F)NC(=O)[C@@H](NC(=O)CNC(=O)[C@H](CCC(=O)O)NC(=O)C(C)(C)NC(=O)[C@@H](N)Cc1ccc(O)cc1)[C@@H](C)O)[C@@H](C)O)[C@@H](C)CC)[C@@H](C)CC)C(=O)N[C@@H](CCC(=O)O)C(=O)NCC(=O)NCC(=O)N1CCC[C@H]1C(=O)N[C@@H](CO)C(=O)N[C@@H](CO)C(=O)NCC(N)=O
**Q.** B11 was tested. Which “hGLPIR cAMP EC50 ratio” value did it give?
**A.** The value was 0.0169.
